Biological target: T1, human Aβ peptide (1-40) biotinylated at the C terminus (human, UniProt P05067 672-711, biotinylated at the C terminus)
T1 construct: domain: beta-amyloid peptide (1-40); the peptide starts at the BACE-1 cleavage site (DAEFRHD...); also called beta-amyloid 1-40 peptide (biotinylated at the C-terminus); streptavidin-captured beta-amyloid (1-40)
Assay: Biacore SPR, similar to Method A(i); streptavidin-captured beta-amyloid (1-40), Fab in solution

T1 sequence (P05067 672-711 limits assumed): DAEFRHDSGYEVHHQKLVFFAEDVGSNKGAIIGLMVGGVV

- Kd: ~2.4 nM
B1: Fab fragments of H2L1, obtained by papain digestion (Fab, V domains shown)
VH: EVQLVESGGGLVQPGGSLRLSCAVSGFTFSDNGMAWVRQAPGKGLEWVSFISNLAYSIDYADTVTGRFTISRDNAKNSLYLQMNSLRAEDTAVYYCVSGTWFAYWGQGTLVTVSS
VL: DIVMTQSPLSLPVTPGEPASISCRVSQSLLHSNGYTYLHWYLQKPGQSPQLLIYKVSNRFSGVPDRFSGSGSGTDFTLKISRVEAEDVGVYYCSQTRHVPYTFGGGTKVEIKR
notes: also called H2L1 Fab
